Results as given in the supplement of paper PMC10567573.
± gives the standard deviation.

Experiment: protein stability index of a GFP-peptide fusion (GPS, HEK-293T) (PSI 1-6); higher = more stable
[1] = treatment: DMSO, c terminus: a fixed tail appended
[2] = treatment: MLN4924 1 uM, 8 h, c terminus: a fixed tail appended
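Note: 24-mer peptide tiles fused after GFP, lentivirally expressed, FACS-sorted into six equal bins by GFP/DsRed ratio, decoded by Illumina sequencing, PSI is the read-weighted mean bin number.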

| Sequence | protein stability index [1] | protein stability index [2] | protein stability index (treatment: DMSO, c terminus: native) | protein stability index (treatment: MLN4924 1 uM, 8 h, c terminus: native) |
| --- | --- | --- | --- | --- |
| QEIIKTTEQLIEAVNNGDFEAYAK [CAMK2B] | 4.27 ± 0.17 | 4.26 ± 0.15 |  |  |
| QRVLFSGSSDHSVIMWDIGGRKGT [WDFY2] | 2.8 ± 0.43 | 2.94 ± 0.14 |  |  |
| PPPLDQYVKFDAVSGDYYPIIYFN [CLPTM1] | 2.32 ± 0.14 | 2.37 ± 0.44 |  |  |
| HTKRLYRAVVEAVHRLDLILCNKT [SMG5] | 2.77 ± 0.36 | 2.82 ± 0.65 |  |  |
| TVGCSSQHTPDQANSDRASIGRRR [PLEKHN1] | 5.04 ± 0.36 | 5.02 ± 0.15 |  |  |
| HRWPPVWYLKEEDHYQRVKREREK [RHOBTB1] | 3.75 ± 0.34 | 4.03 ± 0.28 |  |  |
| VDYTGQAKAQVRKAVQYEEKNPCR [STX11] | 4.37 ± 0.17 | 4.59 ± 0.18 |  |  |
| EPPPPGKHSNKKVMRTKSSEKAAN [CPXM2] | 5.09 ± 0.23 | 5.14 ± 0.81 |  |  |
| PTGLLALQQIADFMTTNVPNVYPA [ADD1] | 2.1 ± 0.47 | 2.14 ± 0.25 |  |  |
| TISFICRELDAISTNEEEKEENEA [PRIM1] | 5.16 ± 0.26 | 5.16 ± 0.1 |  |  |
| TSQFLSLQCLQALYVDSLFFLRGR [PRAME] | 2.49 ± 0.67 | 2.96 ± 0.82 |  |  |
| PCLCLSWEEAQSPANCPACREPSP [TRIM43] | 4.74 ± 0.24 | 4.79 ± 0.15 |  |  |
| VGPAEPTLVNFHLKRSIPQVSPVR [CPN1] | 3.44 ± 0.17 | 3.4 ± 0.32 |  |  |
| KEAVAALPPDVTTQSVMGFDPLPP [TCF25] | 4.79 ± 0.29 | 4.89 ± 0.26 |  |  |
| ENSVTHHEVKCQGKPLAGIYRKRE [KMT5A] | 4.34 ± 0.13 | 4.42 ± 0.34 |  |  |
| TSAAYRYYIDDVFHALVREIRRKE [RIT1] | 2.16 ± 0.36 | 2.35 ± 0.26 |  |  |
| WASCLQYDFDTQYAFVGDYSGQIT [WDFY1] | 2.43 ± 0.39 | 2.2 ± 0.21 |  |  |
| RTDLEMQIEGLNEELAYLKKNHEE [KRT15] | 4.85 ± 0.3 | 4.77 ± 0.22 |  |  |
| LDPVAETAIRQLTEPSGRVAKKTP [C2CD2L] | 5.66 ± 0.17 | 5.18 ± 0.47 |  |  |
| VTLEASRENSKPRAILKPRKVCVG [PPP2R2B] | 3.54 ± 0.23 | 3.8 ± 0.32 |  |  |
| NTTEELEALITDPDEMRMQALLIR [FEM1A] | 3.93 ± 0.29 | 3.86 ± 0.27 |  |  |
| GGYEKASKRMTFQMPKFDLGPLLS [MYOZ1] | 2.54 ± 0.32 | 2.64 ± 0.22 |  |  |

| Sequence | protein stability index [1] | protein stability index [2] | protein stability index (treatment: DMSO, c terminus: native) | protein stability index (treatment: MLN4924 1 uM, 8 h, c terminus: native) |
| --- | --- | --- | --- | --- |
| RKLSFSHSDHSSEMSLPEVQKDKY [SPATS1] | 4.85 ± 0.15 | 4.93 ± 0.2 |  |  |
| HGQENIVRILLRRGVDVSLQGKDA [RIPK4] | 2.5 ± 0.087 | 3.13 ± 0.24 |  |  |
| WNQILDPWVYILLRKAVLKNLYKL [PTGFR] | 2.7 ± 1.1 | 2.03 ± 0.93 |  |  |
| IREQIKKYRRHFLRFCHNNKKAKR [EIF5] | 2.35 ± 0.19 | 2.33 ± 0.16 |  |  |
| LETNQQHFHALCHSLLVSTHVPR [M1AP] |  |  | 2.48 ± 0.43 | 3.13 ± 0.9 |
| LGKGAFSVVRRCVKVLAGQEYAAK [CAMK2A] | 2.61 ± 0.4 | 2.38 ± 0.61 |  |  |
| FKDKSTYIESSTKVYDDMAFRYLS [CLPTM1] | 2.65 ± 0.33 | 2.57 ± 0.32 |  |  |
| LSTLAGIRVMVHGRNHTPFLGHHS [SCNN1D] | 2.69 ± 0.28 | 2.64 ± 0.23 |  |  |
| EMLREVDLNGDGTVDFDEFVMMLS [CABP4] | 4.06 ± 0.25 | 4.17 ± 0.33 |  |  |
| GCCVFAFLVGLLFVQRSGNYFVTM [SLC6A17] | 3.39 ± 0.34 | 3.12 ± 0.07 |  |  |
| IQGNIEYSCPATNECEITKRRRKS [ESRRG] | 4.85 ± 0.15 | 5.13 ± 0.25 |  |  |
| VRTAAIKAMLQLHERGLKLHQTIY [INTS4] | 2.58 ± 0.35 | 2.44 ± 0.33 |  |  |
| PHGTLRVCTISSTGPLQPQPKKPE [PKD2L1] | 4.42 ± 0.27 | 4.5 ± 0.3 |  |  |
| LLARGTMQPFNYVTLQCLAARALD [FEM1A] | 2.44 ± 0.16 | 2.22 ± 0.29 |  |  |
| ANHVFFLLYLLHILLLDGAAWLTL [FADS1] | 3.23 ± 0.61 | 3.39 ± 0.6 |  |  |
| PALDSLAYEYEREGLYEQAFQLLR [TRADD] | 2.64 ± 0.15 | 2.9 ± 0.29 |  |  |
| PKKLLNPVKASRSHQELHRELLMN [FAM107A] | 3.17 ± 0.21 | 3.19 ± 0.29 |  |  |
| SVRILGSLVAILLVFLITAILVKV [SLC29A1] | 2.9 ± 0.44 | 2.85 ± 0.66 |  |  |
| TLIMLLSLAAFSVISVVSYLILAL [RTN3] | 2.58 ± 0.36 | 2.12 ± 0.11 |  |  |
| TGIEGNWGRLLEQVGTMALWASQR [ZBED2] | 1.98 ± 0.57 | 2.48 ± 0.49 |  |  |
| PLSKSSPATTVTSPNSTPAKTIDT [SNAP91] | 5.18 ± 0.19 | 5.18 ± 0.12 |  |  |
| VAEITKQLPPVVPVSKPGALRRSL [TCAP] | 5.15 ± 0.15 | 5.2 ± 0.29 |  |  |
